Experimental data: the supplement of paper PMC10126150
± gives the standard deviation of the averaged measurements.

Test system: ATP
Assay: switch fluorescence ratio, 500 uM ATP over buffer (Cy3 cluster intensity, sum of 5 cycles each) (fold (ratio)); higher = stronger signal-on switching upon ATP binding; sequences stand for … in TCGTCGGCAGCGTCAGATGTGTATAAGAGACAGTTTTTTTTTTTTTTTTTTTTTTTTT…TC
Details: aptamer strand: ATP DNA aptamer (quencher-CACCTGGGGGAGTATTGCGGAGGAAGG + anchor), 100 nM annealed; ATP concentration: 500 uM
In short: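 Between each of five buffer/ATP cycles, the flow-cell was stripped with NaOH and re-annealed. Each cycle imaged Cy3-labelled switching-strand clusters, annealed to 100 nM quencher-labelled ATP aptamer on a modified Illumina MiSeq flow-cell, first in selection buffer and then after 15 min with 500 uM ATP at 22 °C. The fluorescence ratio is summed target-cycle over summed buffer-cycle Cy3 intensity per cluster, averaged per switch-domain sequence, with clusters outside 100-1000 RFU excluded.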
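Also: ATP exposure 15 min at 22 °C before imaging.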

Sequence: CGATTGCTGG
- switch fluorescence ratio: 0.989 ± 0.069

Sequence: CGATTGTATG
- switch fluorescence ratio: 0.992 ± 0.054

Sequence: CGATTTACTT
- switch fluorescence ratio: 1.02 ± 0.04

Sequence: CGATTTGAGG
- switch fluorescence ratio: 0.9967 ± 0.0079

Sequence: CGATTTGGAG
- switch fluorescence ratio: 0.995 ± 0.012

Sequence: CGATTTGGGG
- switch fluorescence ratio: 0.968 ± 0.017

Sequence: CGATTTTAGG
- switch fluorescence ratio: 1 ± 0.035

Sequence: CGATTTTGGG
- switch fluorescence ratio: 0.9844 ± 0.0047

Sequence: CGATTTTTTC
- switch fluorescence ratio: 0.9774 ± 0.003

Sequence: CGCAAACGCA
- switch fluorescence ratio: 3.62 ± 0.17

Sequence: CGCAAAGAGG
- switch fluorescence ratio: 1.18 ± 0.11

Sequence: CGCACCGGGT
- switch fluorescence ratio: 1.05 ± 0.015

Sequence: CGCACCGGTG
- switch fluorescence ratio: 1.02 ± 0.032

Sequence: CGCACGATGC
- switch fluorescence ratio: 2.89 ± 0.32

Sequence: CGCACTTCTG
- switch fluorescence ratio: 1.02 ± 0.024

Sequence: CGCAGCGATG
- switch fluorescence ratio: 2.66 ± 0.11

Sequence: CGCAGGGGGG
- switch fluorescence ratio: 1.09 ± 0.034

Sequence: CGCAGGGTTA
- switch fluorescence ratio: 1.02 ± 0.052

Sequence: CGCAGGTTAG
- switch fluorescence ratio: 1.11 ± 0.025

Sequence: CGCAGTTATT
- switch fluorescence ratio: 1.08 ± 0.014

Sequence: CGCAGTTGGA
- switch fluorescence ratio: 1.03 ± 0.039

Sequence: CGCATAAATA
- switch fluorescence ratio: 1.16 ± 0.034

Sequence: CGCATACGGT
- switch fluorescence ratio: 4.124 ± 0.029

Sequence: CGCATATGTA
- switch fluorescence ratio: 1.08 ± 0.033

Sequence: CGCATGAGTT
- switch fluorescence ratio: 1.017 ± 0.0098

Sequence: CGCATTAAAA
- switch fluorescence ratio: 0.969 ± 0.024

Sequence: CGCATTGTGG
- switch fluorescence ratio: 1.02 ± 0.042

Sequence: CGCATTTAGG
- switch fluorescence ratio: 1.08 ± 0.027

Sequence: CGCATTTAGT
- switch fluorescence ratio: 1.12 ± 0.0063

Sequence: CGCATTTGGT
- switch fluorescence ratio: 1.07 ± 0.036

Sequence: CGCCAGAAGG
- switch fluorescence ratio: 0.9883 ± 0.0036

Sequence: CGCCAGCAGA
- switch fluorescence ratio: 1.33 ± 0.14

Sequence: CGCCAGCATA
- switch fluorescence ratio: 2.82 ± 0.31

Sequence: CGCCATATTT
- switch fluorescence ratio: 1.03 ± 0.016

Sequence: CGCCATGGAA
- switch fluorescence ratio: 1 ± 0.017

Sequence: CGCCCCGTCA
- switch fluorescence ratio: 0.954 ± 0.036

Sequence: CGCCCGCTGT
- switch fluorescence ratio: 1.72 ± 0.65

Sequence: CGCCCGGGGG
- switch fluorescence ratio: 1.32 ± 0.45

Sequence: CGCCGCACTT
- switch fluorescence ratio: 3.93 ± 1.1

Sequence: CGCCGCTTCA
- switch fluorescence ratio: 1.05 ± 0.067

Sequence: CGCCGGGTTT
- switch fluorescence ratio: 1.02 ± 0.018

Sequence: CGCCTAGAGG
- switch fluorescence ratio: 1.02 ± 0.032

Sequence: CGCCTCATTT
- switch fluorescence ratio: 1 ± 0.03

Sequence: CGCCTGGCGT
- switch fluorescence ratio: 0.9568 ± 0.0077

Sequence: CGCCTTTGTG
- switch fluorescence ratio: 1 ± 0.019

Sequence: CGCGAAGTTG
- switch fluorescence ratio: 0.999 ± 0.057

Sequence: CGCGCAGGGG
- switch fluorescence ratio: 1.69 ± 0.076

Sequence: CGCGCATGGT
- switch fluorescence ratio: 1.14 ± 0.033

Sequence: CGCGCGGATT
- switch fluorescence ratio: 1.04 ± 0.034

Sequence: CGCGCGGTGT
- switch fluorescence ratio: 1.17 ± 0.2

Sequence: CGCGGGCCGT
- switch fluorescence ratio: 0.981 ± 0.024

Sequence: CGCGGGGATA
- switch fluorescence ratio: 1.18 ± 0.23

Sequence: CGCGGGTTGC
- switch fluorescence ratio: 1.06 ± 0.042

Sequence: CGCGGTATGG
- switch fluorescence ratio: 1.04 ± 0.022

Sequence: CGCGGTGGGA
- switch fluorescence ratio: 1.02 ± 0.026

Sequence: CGCGGTGGGC
- switch fluorescence ratio: 1.005 ± 0.0026

Sequence: CGCGGTTGC
- switch fluorescence ratio: 1.24 ± 0.038

Sequence: CGCGTAGACA
- switch fluorescence ratio: 0.992 ± 0.055

Sequence: CGCGTCGGGA
- switch fluorescence ratio: 0.976 ± 0.044

Sequence: CGCGTGGGCC
- switch fluorescence ratio: 1.03 ± 0.026

Sequence: CGCGTTAGA
- switch fluorescence ratio: 1.04 ± 0.017

Sequence: CGCGTTGAAA
- switch fluorescence ratio: 1.038 ± 0.0035

Sequence: CGCGTTGGGG
- switch fluorescence ratio: 1.03 ± 0.044

Sequence: CGCTAAAGCC
- switch fluorescence ratio: 1.156 ± 0.003

Sequence: CGCTACTGTT
- switch fluorescence ratio: 1.079 ± 0.0014

Sequence: CGCTACTTGA
- switch fluorescence ratio: 1.027 ± 0.0082

Sequence: CGCTATGTTT
- switch fluorescence ratio: 1.02 ± 0.019

Sequence: CGCTATTTCT
- switch fluorescence ratio: 1.1 ± 0.051

Sequence: CGCTCAAAGG
- switch fluorescence ratio: 1.03 ± 0.015

Sequence: CGCTCAGTTG
- switch fluorescence ratio: 1.13 ± 0.0039

Sequence: CGCTCCGATG
- switch fluorescence ratio: 1.26 ± 0.025

Sequence: CGCTCCGGAG
- switch fluorescence ratio: 1.18 ± 0.14

Sequence: CGCTCCGGGG
- switch fluorescence ratio: 1.06 ± 0.07

Sequence: CGCTCTTATT
- switch fluorescence ratio: 0.978 ± 0.016

Sequence: CGCTCTTTTG
- switch fluorescence ratio: 1.02 ± 0.061

Sequence: CGCTGCTCGC
- switch fluorescence ratio: 1.3253 ± 0.00064

Sequence: CGCTGGCATG
- switch fluorescence ratio: 1 ± 0.032

Sequence: CGCTGGGTGG
- switch fluorescence ratio: 1.02 ± 0.037

Sequence: CGCTGTCGGA
- switch fluorescence ratio: 1.014 ± 0.0078

Sequence: CGCTGTGGCG
- switch fluorescence ratio: 0.983 ± 0.036

Sequence: CGCTGTGGGC
- switch fluorescence ratio: 0.988 ± 0.044

Sequence: CGCTTAAGTT
- switch fluorescence ratio: 1.004 ± 0.0013

Sequence: CGCTTAATTA
- switch fluorescence ratio: 1.01 ± 0.041

Sequence: CGCTTAGCCA
- switch fluorescence ratio: 1.01 ± 0.021

Sequence: CGCTTAGGCA
- switch fluorescence ratio: 1.02 ± 0.053

Sequence: CGCTTCTCTT
- switch fluorescence ratio: 1.03 ± 0.011

Sequence: CGCTTGGGGT
- switch fluorescence ratio: 0.9626 ± 0.0092

Sequence: CGCTTGGTCG
- switch fluorescence ratio: 1.03 ± 0.016

Sequence: CGCTTGTATT
- switch fluorescence ratio: 1.02 ± 0.013

Sequence: CGCTTTGGAA
- switch fluorescence ratio: 0.964 ± 0.064

Sequence: CGCTTTGGTT
- switch fluorescence ratio: 1.04 ± 0.012

Sequence: CGCTTTTCTT
- switch fluorescence ratio: 1.01 ± 0.0035

Sequence: CGCTTTTGCT
- switch fluorescence ratio: 0.969 ± 0.029

Sequence: CGGAAAGCG
- switch fluorescence ratio: 1 ± 0.026

Sequence: CGGAAATGGG
- switch fluorescence ratio: 1.023 ± 0.0022

Sequence: CGGAACGAGA
- switch fluorescence ratio: 0.983 ± 0.025

Sequence: CGGAAGAAAT
- switch fluorescence ratio: 1.02 ± 0.017

Sequence: CGGAATGCAG
- switch fluorescence ratio: 1.076 ± 0.0032

Sequence: CGGAATTTTT
- switch fluorescence ratio: 0.971 ± 0.016

Sequence: CGGACATTCA
- switch fluorescence ratio: 1.041 ± 0.0082
